In US20200207859A1 (priority 2017, published 2020):

Legend:
[1] = system: SUP-B15 (ALL); assay: Cell killing assay (cell proliferation, Cell Titer-Glo); format: cell-based; conditions: 72 hrs
Experimental: (§1) Cytotoxicity effects of the free drug linkers and conjugates were measured with a cell proliferation assay. A total of 12500 cells in a volume of 25 μl were seeded in a 384-well flat bottom white polystyrene plate on the day of assay. Free drug-linkers and conjugates were formulated at 2× starting concentration (1000 nM for free drug linkers and 100 nM for ADCs) in RPMI medium and filtered through MultiScreen HTS 96-Well Filter Plates (Millipore). Filter sterilized samples were serial diluted (1:3) under sterile conditions and added into treatment wells. Plates were cultured at 37° C. in a CO2 incubator for 72 hrs. For cell viability measurement, 30 μl of Cell Titer-Glo® reagent (Promega Corp.) was added into each well, and plates processed as per product instructions. Relative luminescence was measured on an ENVISION® plate reader (Perkin-Elmer; Waltham, Mass.). Relative luminescence readings were converted to % viability using untreated cells as controls. Data was fitted with non-linear regression analysis, using log(inhibitor) vs. response, variable slope, 4 parameter fit equation using GraphPad Prism. Data was expressed as % relative cell viability vs. dose of free drug-linker or conjugate in nM.

[2] = system: BDCM (AML); assay: as above; format: cell-based; conditions: 72 hrs
Experimental: as §1

[3] = system: RPMI-6666 (HL); assay: as above; format: cell-based; conditions: 72 hrs
Experimental: as §1

[4] = system: JVM-13 (CLL); assay: as above; format: cell-based; conditions: 72 hrs
Experimental: as §1

[5] = system: K562 (CML); assay: as above; format: cell-based; set-up: key to Cell Killing Activity Span: NK = no killing; NB = no binding; conditions: 72 hrs
Experimental: as §1

[6] = system: OPM-2 (MM); assay: as above; format: cell-based; set-up: key to Cell Killing Activity Span: NK = no killing; NB = no binding; conditions: 72 hrs
Experimental: as §1

[7] = system: RPMI-8226 (MM); assay: as above; format: cell-based; set-up: key to Cell Killing Activity Span: NK = no killing; NB = no binding; conditions: 72 hrs
Experimental: as §1

[8] = system: ARP-1 (MM); assay: as above; format: cell-based, human; conditions: 72 hrs
Experimental: as §1

[9] = system: ARD (MM); assay: as above; format: cell-based, human; conditions: 72 hrs
Experimental: as §1

[10] = system: SU-DHL-6 (NHL); assay: as above; format: cell-based, human; conditions: 72 hrs
Experimental: as §1

[11] = target: CD74 (human), P04233; assay: cell-based or functional assay
Sequence of CD74 (human), P04233 (P04233 whole entry): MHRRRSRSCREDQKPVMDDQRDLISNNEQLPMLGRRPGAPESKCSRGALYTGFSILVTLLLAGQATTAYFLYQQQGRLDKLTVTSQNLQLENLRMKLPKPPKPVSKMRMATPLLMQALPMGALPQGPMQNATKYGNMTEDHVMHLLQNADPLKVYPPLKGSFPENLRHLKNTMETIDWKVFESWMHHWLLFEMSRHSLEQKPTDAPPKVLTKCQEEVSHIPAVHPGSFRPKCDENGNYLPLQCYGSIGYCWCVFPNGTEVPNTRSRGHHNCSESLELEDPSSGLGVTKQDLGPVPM

## COc1cc2cc(c1Cl)N(C)C(=O)C[C@H](OC(=O)[C@H](C)N(C)C(=O)CCCC(=O)N(C)CCOCCOCCOCCOCCC(=O)NCCC(=O)N1Cc3ccccc3C#Cc3ccccc31)[C@]1(C)O[C@H]1[C@H](C)[C@@H]1C[C@@](O)(NC(=O)O1)[C@H](OC)/C=C/C=C(/C)C2 [Free Linker-Drug, DBCO-PEG4-maytansine, reference compound]
[1]
  Cell Killing Activity Span: 65%
[2]
  Cell Killing Activity Span: 76%
[3]
  Cell Killing Activity Span: 85%
[4]
  Cell Killing Activity Span: 65%
[5]
  Cell Killing Activity Span: NK
[6]
  Cell Killing Activity Span: NK
[7]
  Cell Killing Activity Span: NK
[8]
  Cell Killing Activity Span: 77%
[9]
  Cell Killing Activity Span: 40%
[10]
  Cell Killing Activity Span: 98%

B1: Conjugate A (anti-CD74 IgG-DBCO-PEG4-maytansine conjugate) (antibody, V domains shown)
VH: QVQLVESGGGVVQPGRSLRLSCAASGFNFSDYGMHWVRQAPGKGLEWVAVIWYDGSISYYADSVKGRFTISRDNSKNTLYLQMNSLRAEDTAVYYCARGGTVEHGAVYGTDVWGQGTTVTVSS
VL: DIQMTQSPSSVSASVGDRVTITCRASQGIGSWLAWYQQKPGKAPKLLIYAADRLQSGVPSRFSGSGSGTDFTLTISSLQPEDFATYYCQQYHTYPLTFGGGTKVEIK
modifications: here or on the partner: para-azidomethyl-L-phenylalanine (pAMF, residue 30) at heavy chain EU position 404 (constant region, outside SEQ ID NO 236), linked to DBCO-PEG4-maytansine
[11]
  cell killing EC50, HH T lymphoma cells, 120 h CellTiter-Glo: 0.22 nM
  cell killing EC50, HuT-78 T lymphoma cells, 120 h CellTiter-Glo: 0.59 nM
  cell killing EC50, My-La T lymphoma cells, 120 h CellTiter-Glo: 0.54 nM
  cell killing IC50, ARD (MM) cells: 8.6 nM
  cell killing IC50, ARD (MM) cells, 72 h CellTiter-Glo: 8.6 nM
  cell killing IC50, ARP-1 (MM) cells: 9 nM
  cell killing IC50, ARP-1 (MM) cells, 72 h CellTiter-Glo: 9 nM
  cell killing IC50, BDCM (AML) cells: 4.6 nM
  cell killing IC50, BDCM (AML) cells, 72 h CellTiter-Glo: 4.6 nM
  cell killing IC50, JVM-13 (CLL) cells: 1.5 nM
  cell killing IC50, JVM-13 (CLL) cells, 72 h CellTiter-Glo: 1.5 nM
  cell killing IC50, RPMI-6666 (HL) cells: 1 nM
  cell killing IC50, RPMI-6666 (HL) cells, 72 h CellTiter-Glo: 1 nM
  cell killing IC50, SU-DHL-6 (NHL) cells: 0.6 nM
  cell killing IC50, SU-DHL-6 (NHL) cells, 72 h CellTiter-Glo: 0.6 nM
  cell killing IC50, SUP-B15 (ALL) cells: 3 nM
  cell killing IC50, SUP-B15 (ALL) cells, 72 h CellTiter-Glo: 3 nM
  cell killing Span, ARD (MM) cells: 40%
  cell killing Span, ARD (MM) cells, 72 h CellTiter-Glo: 38%
  cell killing Span, ARP-1 (MM) cells: 77%
  cell killing Span, ARP-1 (MM) cells, 72 h CellTiter-Glo: 74%
  cell killing Span, BDCM (AML) cells: 76%
  cell killing Span, BDCM (AML) cells, 72 h CellTiter-Glo: 74%
  cell killing Span, HH T lymphoma cells, 120 h CellTiter-Glo: 77%
  cell killing Span, HuT-78 T lymphoma cells, 120 h CellTiter-Glo: 72%
  cell killing Span, JVM-13 (CLL) cells: 65%
  cell killing Span, JVM-13 (CLL) cells, 72 h CellTiter-Glo: 58%
  cell killing Span, My-La T lymphoma cells, 120 h CellTiter-Glo: 73%
  cell killing Span, RPMI-6666 (HL) cells: 85%
  cell killing Span, RPMI-6666 (HL) cells, 72 h CellTiter-Glo: 84%
  cell killing Span, SU-DHL-6 (NHL) cells: 98%
  cell killing Span, SU-DHL-6 (NHL) cells, 72 h CellTiter-Glo: 98%
  cell killing Span, SUP-B15 (ALL) cells: 65%
  cell killing Span, SUP-B15 (ALL) cells, 72 h CellTiter-Glo: 64%

B2: Conjugate C: anti-CD74 IgG containing residue 30 conjugated to a val-cit-PAB-hemiasterlin precursor (conjugate)
VH: B1 VH
VL: B1 VL
modifications: non-natural residues
[1]
  Cell Killing Activity Span: 68%
[2]
  Cell Killing Activity Span: 89%
[3]
  Cell Killing Activity Span: 84%
[4]
  Cell Killing Activity Span: 54%
[5]
  Cell Killing Activity Span: NK
  IC50: > 50 nM
[6]
  Cell Killing Activity Span: NK
  IC50: > 50 nM
[7]
  Cell Killing Activity Span: 43%
[8]
  Cell Killing Activity Span: 87%
[9]
  Cell Killing Activity Span: 74%
[10]
  Cell Killing Activity Span: 97%

B3: Conjugate F (anti-CD74 IgG-PEG4-MMAE conjugate) (antibody, V domains shown)
VH: B1 VH
VL: B1 VL
modifications: here or on the partner: modified amino acid residue 30 (pAMF) according to Example 2, position not stated for this conjugate, linked to PEG4-MMAE
[11]
  cell killing IC50, ARD (MM) cells: 16 nM
  cell killing IC50, ARP-1 (MM) cells: 4.2 nM
  cell killing IC50, BDCM (AML) cells: 1.4 nM
  cell killing IC50, JVM-13 (CLL) cells: 5 nM
  cell killing IC50, RPMI-6666 (HL) cells: 0.7 nM
  cell killing IC50, RPMI-8226 (MM) cells: 20 nM
  cell killing IC50, SU-DHL-6 (NHL) cells: 0.3 nM
  cell killing IC50, SUP-B15 (ALL) cells: 3.7 nM
  cell killing Span, ARD (MM) cells: 73%
  cell killing Span, ARP-1 (MM) cells: 93%
  cell killing Span, BDCM (AML) cells: 94%
  cell killing Span, JVM-13 (CLL) cells: 59%
  cell killing Span, RPMI-6666 (HL) cells: 82%
  cell killing Span, RPMI-8226 (MM) cells: 31%
  cell killing Span, SU-DHL-6 (NHL) cells: 97%
  cell killing Span, SUP-B15 (ALL) cells: 65%
